Data on 13 molecules can be found in US12180280 (dated 2024).

Where two headings read alike, the source gives them in different places.

What all share (experiment): SPR
(SPR reads the build-up and loss of mass on a sensor chip optically.)

The target in assay [1] is T1, monkey CD3 epsilon (cynomolgus monkey, UniProt Q95LI5).
T1 chain: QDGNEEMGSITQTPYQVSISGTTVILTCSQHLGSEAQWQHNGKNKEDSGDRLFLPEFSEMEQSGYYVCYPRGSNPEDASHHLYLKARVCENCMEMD

In assay [2] the target is T2, human CD3 epsilon (human, UniProt P07766).
T2 chain: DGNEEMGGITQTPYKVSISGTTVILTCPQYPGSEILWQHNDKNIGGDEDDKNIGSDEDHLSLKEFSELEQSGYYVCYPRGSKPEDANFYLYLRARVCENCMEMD

For assay [3], the target named is T1, monkey CD3 epsilon.
Assay [4] concerns the target T2, human CD3 epsilon.
The target of assay [5] is T2, human CD3 epsilon.

B1: 19-37 (antibody, V domains shown)
VH: EVKLLESGGGLVQPKGSLKLSCAASGFTFNTYAMNWVRQAPGKGLEWVARIRSKYNNYATYYAISVKDRFTISRDDSQSILYLQMNNLKTEDTAMYYCVRHGNFGNSYISYWAYWGQGTLVTVSA
VL: QAVVTQESALTTSPGETVTLTCRSSTGAVTTNNYANWVQEKPDHLFTGLIGGTRLSAPGVPARFSGSLIGDKAALTITGAQTEDEAIYFCVLWYSNLWVFGGGTKLTVL
As for B1, the Kd with monkey CD3 epsilon [1] is 0.00379 nM; with human CD3 epsilon [2], 0.00628 nM.

B2: CD3-19 (antibody, V domains shown)
VH: EVKLLESGGGLVQPKGSLKLSCAASGFTFNSYAMNWVRQAPGKGLEWVARIRSKYNNYATYYADSVKDRFTISRDDSQSILYLQMNNLKTEDTAMYYCVRHGNFGNSYLSYWAYWGQGTLVTVSA
VL: QAVVTQESALTTSPGETVTLTCDSSTGAVTTSNYANWVQEKPDHLFTGLIGGTQRSAPGVPARFSGSLIGDKAALTITGAQTEDEAIYFCVLWYSNLWVFGGGTKLTVL
Consider B2, for which the Kd in the assay with monkey CD3 epsilon [1] was 0.347 nM; in the assay with human CD3 epsilon [2], 0.222 nM.

B3: 19-15 (antibody, V domains shown)
VH: EVKLLESGGGLVQPKGSLKLSCAASGFTFNTYAMNWVRQAPGKGLEWVARIRSKYNNYATYYAISVKDRFTISRDDSQSILYLQMNNLKTEDTAMYYCVRHGNFGNSYLSYWAYWGQGTLVTVSA
VL: QAVVTQESALTTSPGETVTLTCQSSTGAVTTNNYANWVQEKPDHLFTGLIGGTKQRAPGVPARFSGSLIGDKAALTITGAQTEDEAIYFCVLWYSNLWVFGGGTKLTVL
Take B3: the Kd with monkey CD3 epsilon [1] was 0.232 nM; with human CD3 epsilon [2] it was 0.143 nM.

B4: 19-26 (antibody, V domains shown)
VH: EVKLLESGGGLVQPKGSLKLSCAASGFTFNTYAMNWVRQAPGKGLEWVARIRSKYNNYATYYADSVKDRFTISRDDSQSILYLQMNNLKTEDTAMYYCVRHGNFGNSYISWWAYWGQGTLVTVSA
VL: QAVVTQESALTTSPGETVTLTCKSSTGAVTTSNYANWVQEKPDHLFTGLIGGTNLHAPGVPARFSGSLIGDKAALTITGAQTEDEAIYFCALWYSNLWVFGGGTKLTVL
Consider B4, for which the values for the Kd with monkey CD3 epsilon [1] and in the assay with human CD3 epsilon [2] were 0.237 nM and 0.184 nM, respectively.

B5: 15H2L3 (antibody, V domains shown)
VH: EVQLLESGGGLVQPGGSLRLSCAASGFTFNTYAMNWVRQAPGKGLEWVARIRSKYNNYATYYAISVKDRFTISRDNSKNTLYLQMNSLRAEDTAVYYCVKHGNFGNSYLSYWAYWGQGTLVTVSS
VL: QAVVTQEPSLTVSPGGTVTLTCQSSTGAVTTNNYANWVQQKPGHAFRGLIGGTKQRAPGVPARFSGSLLGGKAALTLSGVQPEDEAEYYCVLWYSNLWVFGGGTKLTVL
As to B5, the Kd with monkey CD3 epsilon [3] amounted to 0.777 nM; with human CD3 epsilon [4], 0.104 nM.

B6: 15H2L2 (antibody, V domains shown)
VH: EVQLLESGGGLVQPGGSLRLSCAASGFTFNTYAMNWVRQAPGKGLEWVARIRSKYNNYATYYAISVKDRFTISRDNSKNTLYLQMNSLRAEDTAVYYCVKHGNFGNSYLSYWAYWGQGTLVTVSS
VL: QTVVTQEPSLTVSPGGTVTLTCQSSTGAVTTNNYANWVQQKPGQAPRALIGGTKQRAPGTPARFSGSLLGGKAALTLSGVQPEDEAEYYCVLWYSNLWVFGGGTKLTVL
Take B6: the dissociation constant Kd in the assay with monkey CD3 epsilon [3] was 5.84 nM; with human CD3 epsilon [4] it was 0.516 nM.

B7: MBS303-2 (CD3 arm) (antibody, V domains shown)
VH: EVQLLESGGGLVQPGGSLRLSCAASGFTFNTYAMNWVRQAPGKGLEWVARIRSKYNNYATYYAISVKDRFTISRDDSKNTLYLQMNSLRAEDTAMYYCVRHGNFGNSYLSYWAYWGQGTLVTVSS
VL: QAVVTQEPSLTVSPGGTVTLTCQSSTGAVTTNNYANWVQQKPGHAFRGLIGGTKQRAPGVPARFSGSLLGGKAALTLSGVQPEDEAEYYCVLWYSNLWVFGGGTKLTVL
In the case of B7, the Kd in the assay with human CD3 epsilon [5] was 1.79 nM.

B8: 26H3L3 (antibody, V domains shown)
VH: EVQLLESGGGLVQPGGSLRLSCAASGFTFNTYAMNWVRQAPGKGLEWVARIRSKYNNYATYYADSVKDRFTISRDDSKNTLYLQMNSLRAEDTAMYYCVRHGNFGNSYISWWAYWGQGTLVTVSS
VL: QAVVTQEPSLTVSPGGTVTLTCKSSTGAVTTSNYANWVQQKPGHAFRGLIGGTNLHAPGVPARFSGSLLGGKAALTLSGVQPEDEAEYYCALWYSNLWVFGGGTKLTVL
As for B8, the Kd in the assay with monkey CD3 epsilon [3] worked out at 0.192 nM; with human CD3 epsilon [4] it was 0.864 nM.

B9: 15H3L2 (antibody, V domains shown)
VH: EVQLLESGGGLVQPGGSLRLSCAASGFTFNTYAMNWVRQAPGKGLEWVARIRSKYNNYATYYAISVKDRFTISRDDSKNTLYLQMNSLRAEDTAMYYCVRHGNFGNSYLSYWAYWGQGTLVTVSS
VL: QTVVTQEPSLTVSPGGTVTLTCQSSTGAVTTNNYANWVQQKPGQAPRALIGGTKQRAPGTPARFSGSLLGGKAALTLSGVQPEDEAEYYCVLWYSNLWVFGGGTKLTVL
Turning to B9, the Kd with monkey CD3 epsilon [3] worked out at 0.591 nM; in the assay with human CD3 epsilon [4], 0.205 nM.

B10: 15H3L3 (antibody, V domains shown)
VH: EVQLLESGGGLVQPGGSLRLSCAASGFTFNTYAMNWVRQAPGKGLEWVARIRSKYNNYATYYAISVKDRFTISRDDSKNTLYLQMNSLRAEDTAMYYCVRHGNFGNSYLSYWAYWGQGTLVTVSS
VL: QAVVTQEPSLTVSPGGTVTLTCQSSTGAVTTNNYANWVQQKPGHAFRGLIGGTKQRAPGVPARFSGSLLGGKAALTLSGVQPEDEAEYYCVLWYSNLWVFGGGTKLTVL
In the case of B10, the equilibrium dissociation constant (Kd) with monkey CD3 epsilon [3] came to 0.616 nM; with human CD3 epsilon [4], 0.0967 nM.

B11: 26H2L3 (antibody, V domains shown)
VH: EVQLLESGGGLVQPGGSLRLSCAASGFTFNTYAMNWVRQAPGKGLEWVARIRSKYNNYATYYADSVKDRFTISRDNSKNTLYLQMNSLRAEDTAVYYCVKHGNFGNSYISWWAYWGQGTLVTVSS
VL: QAVVTQEPSLTVSPGGTVTLTCKSSTGAVTTSNYANWVQQKPGHAFRGLIGGTNLHAPGVPARFSGSLLGGKAALTLSGVQPEDEAEYYCALWYSNLWVFGGGTKLTVL
Consider B11, for which the Kd was 2.27 nM with monkey CD3 epsilon [3] and 3.95 nM with human CD3 epsilon [4].

B12: MBS303-1 (CD3 arm) (antibody, V domains shown)
VH: EVQLLESGGGLVQPGGSLRLSCAASGFTFNTYAMNWVRQAPGKGLEWVARIRSKYNNYATYYAISVKDRFTISRDNSKNTLYLQMNSLRAEDTAVYYCVKHGNFGNSYLSYWAYWGQGTLVTVSS
VL: QAVVTQEPSLTVSPGGTVTLTCQSSTGAVTTNNYANWVQQKPGHAFRGLIGGTKQRAPGVPARFSGSLLGGKAALTLSGVQPEDEAEYYCVLWYSNLWVFGGGTKLTVL
B12 displayed a dissociation constant (Kd) in the assay with human CD3 epsilon [5] of 1.99 nM.

B13: CD20-TCB (CD3 arm) (antibody)
chain 1: not shown
chain 2: QVQLVQSGAEVKKPGSSVKVSCKASGYAFSYSWINWVRQAPGQGLEWMGRIFPGDGDTDYNGKFKGRVTITADKSTSTAYMELSSLRSEDTAVYYCARNVFDGYWLVYWGQGTLVTVSSASTKGPSVFPLAPSSKSTSGGTAALGCLVEDYFPEPVTVSWNSGALTSGVHTFPAVLQSSGLYSLSSVVTVPSSSLGTQTYICNVNHKPSNTKVDEKVEPKSCDKTHTCPPCPAPEAAGGPSVFLFPPKPKDTLMISRTPEVTCVVVDVSHEDPEVKFNWYVDGVEVHNAKTKPREEQYNSTYRVVSVLTVLHQDWLNGKEYKCKVSNKALGAPIEKTISKAKGQPREPQVCTLPPSRDELTKNQVSLSCAVKGFYPSDIAVEWESNGQPENNYKTTPPVLDSDGSFFLVSKLTVDKSRWQQGNVFSCSVMHEALHNHYTQKSLSLSP
chain 3: EVQLLESGGGLVQPGGSLRLSCAASGFTFSTYAMNWVRQAPGKGLEWVSRIRSKYNNYATYYADSVKGRFTISRDDSKNTLYLQMNSLRAEDTAVYYCVRHGNFGNSYVSWFAYWGQGTLVTVSSASVAAPSVFIFPPSDEQLKSGTASVVCLLNNFYPREAKVQWKVDNALQSGNSQESVTEQDSKDSTYSLSSTLTLSKADYEKHKVYACEVTHQGLSSPVTKSFNRGEC
chain 4: DIVMTQTPLSLPVTPGEPASISCRSSKSLLHSNGITYLYWYLQKPGQSPQLLIYQMSNLVSGVPDRFSGSGSGTDFTLKISRVEAEDVGVYYCAQNLELPYTFGGGTKVEIKRTVAAPSVFIFPPSDRKLKSGTASVVCLLNNFYPREAKVQWKVDNALQSGNSQESVTEQDSKDSTYSLSSTLTLSKADYEKHKVYACEVTHQGLSSPVTKSFNRGEC
For the molecule B13, the dissociation constant Kd with human CD3 epsilon [5] was found to be 5.6 nM.

One may read the Kd as the equilibrium constant for the complex coming apart.
